Results from US20170190788A1, “USES OF ANTI-HER3 ANTIBODIES FOR TREATING CANCER” (BULLDOG PHARMACEUTICALS, INC., priority 2014, published 2017).
Entries after “also recorded” stand apart in the source; their conditions may differ.

Legend:
ErbB3 (HER3) = target: T1, ErbB3 (HER3) (Homo sapiens (Human), UniProt P21860 20-1342); assay: binding of fluorescent probe to HT29, A375, A2058 and WM115 cells; mean fluorescence intensity, total over non-specific (excess unlabelled probe)
T1 construct: They are human tumour lines, so human HER3 is meant; also called HER3 receptor
Experimental: The effects of trametinib and vemurafenib on cell-surface expressed ErbB3 were also monitored. HT29, A375, A2058 and WM115 cells were treated with 100 nM trametinib or 1 μM vemurafenib for 24 hours at 37° C. […] Specific binding was determined by calculating the mean fluorescent intensity ratio of total binding (labeled probe alone) divided by the non-specific binding (labeled probe with excess of unlabeled probe). Values should be reported as the binding ratio of drug-treated samples divided by the untreated sample.

[1] = system: B-Raf mutated cell lines (H29, A375, A2058 and WM115); assay: Cell proliferative assays in B-Raf mutated cell lines; assay type: cell-based; conditions: four B-Raf mutated cell lines
Experimental: To investigate whether NRG signaling attenuates the anti-proliferative effects of trametinib or vemurafenib, cells were exposed to the drugs in the presence or absence of NRG. In addition, 2C2-YTE was introduced in a separate set of samples. Cell proliferative assays were performed in all four B-Raf mutated cell lines (H29, A375, A2058 and WM115).

| binding result (ErbB3 (HER3)) | Molecule | effect of NRG on anti-proliferative effects of trametinib or vemurafenib [1] |
| --- | --- | --- |
| binds | 2C2-YTE anti-HER3 antibody (antibody, V domains shown, In the phosphorylation and proliferation assays it was unlabelled; also called 2C2-YTE mutant antibody; anti-HER3 antibody (2C2-YTE); not shown: human lambda light chain constant region) VH: EVQLLESGGGLVQPGGSLRLSCAASGFTFSYYYMQWVRQAPGKGLEWVSYIGSSGGVTNYADSVKGRFTISRDNSKNTLYLQMNSLRAEDTAVYYCARVGLGDAFDIWGQGTMVTVSS VL: QSVLTQPPSASGTPGQRVTISCSGSLSNIGLNYVSWYQQLPGTAPKLLISRNNQRPSGVPDRFSGSKSGTSASLAISGLRSEDEADYYCAAWDDSPPGEAFGGGTKLTVL | – |
| – | NRG: neuregulin, HER3 ligand used to stimulate cells (protein) SHLVKCAEKEKTFCVNGGECFMVKDLSNPSRYLCKCPNEFTGDRCQNYVMASFYKHLGIEFMEAE | can robustly attenuate the effects of BRAF and MEK inhibitors; also recorded: attenuates the anti-proliferative effects of the BRAF and MEK inhibitors |
